Results from patent US20150038408A1 (University of Washington, published 2015).
Read-outs that look alike come from different tables or passages of the source.

B1: HB80.3_s4_E82 (designed binder)
chain: MASTRGSGRPWKFSENVAFEIALSFTNKDTPDRWAKVARYVRGRTPEEVKKHYE
B2: HB36.4_s4_E11 (designed binder)
chain: MSNAMDGQQLNRLLLEWIGAWDPFGLGKDAYDVEADAVLKAVYETNSAFDLAMRIHWIYNFAFKRKIPFVHAQKLARRLLELKQAASSPLP
B3: HB80.3_s4_E94 (designed binder)
chain: ASTRGSGRPWKFSENVAFELALYFTNKDTPDRWAKVARYVKGRTPEEVKKHYE

How the values were obtained:
[1] = molecular target: T1, A/South Carolina/1/1918 (H1N1) hemagglutinin ectodomain (Influenza A virus A/South …); assay: yeast surface display titration
[2] = molecular target: T1, A/South Carolina/1/1918 (H1N1) …; assay: yeast surface display titration; remark: listed apart in the source

Binder	binding result [1]	binding result [2]
B1	binds	–
B2	–	binds
B3	binds	–
